Consider one molecule from article PMC7156110, “The MAPK substrate MASS proteins regulate stomatal development in Arabidopsis” (PLoS Genetics, 2020).

The assay deals with T1, MBP-YDA (recombinant YODA) (Arabidopsis thaliana, UniProt Q9CAD5 1-883).
T1 construct: MAPKK kinase YODA (YDA, AT1G63700), Arabidopsis thaliana; also called MBP-tagged YDA; source: E. coli BL21 (DE3), purified (Amylose Resin)
T1 sequence (looked up): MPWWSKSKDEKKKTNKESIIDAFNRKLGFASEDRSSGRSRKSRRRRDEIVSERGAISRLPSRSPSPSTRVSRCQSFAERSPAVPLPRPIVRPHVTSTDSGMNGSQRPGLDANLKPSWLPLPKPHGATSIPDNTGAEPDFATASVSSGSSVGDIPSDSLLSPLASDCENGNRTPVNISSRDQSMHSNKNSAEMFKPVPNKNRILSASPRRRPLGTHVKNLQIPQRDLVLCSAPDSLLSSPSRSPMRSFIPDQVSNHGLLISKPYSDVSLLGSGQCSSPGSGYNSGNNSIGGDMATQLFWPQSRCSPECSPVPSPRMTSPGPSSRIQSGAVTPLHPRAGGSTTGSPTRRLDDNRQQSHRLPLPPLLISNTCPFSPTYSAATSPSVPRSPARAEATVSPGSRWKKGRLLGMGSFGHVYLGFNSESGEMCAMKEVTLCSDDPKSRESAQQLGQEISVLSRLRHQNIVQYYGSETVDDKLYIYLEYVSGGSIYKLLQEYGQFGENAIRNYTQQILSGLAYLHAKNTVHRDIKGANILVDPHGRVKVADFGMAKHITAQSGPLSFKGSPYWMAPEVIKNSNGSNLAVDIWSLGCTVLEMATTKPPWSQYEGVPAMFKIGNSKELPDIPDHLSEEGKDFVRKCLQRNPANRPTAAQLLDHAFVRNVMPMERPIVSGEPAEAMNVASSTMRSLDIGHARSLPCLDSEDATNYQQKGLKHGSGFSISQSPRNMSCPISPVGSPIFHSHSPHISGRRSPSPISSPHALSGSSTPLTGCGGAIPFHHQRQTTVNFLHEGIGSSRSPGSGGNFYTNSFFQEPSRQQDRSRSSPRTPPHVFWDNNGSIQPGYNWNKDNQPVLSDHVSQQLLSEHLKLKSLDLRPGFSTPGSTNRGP
Nature of the assay: pull-down; MBP-YDA held on Amylose Resin, incubated with His-MASS2 at 4°C for 2 h; washing buffer 50 mM Tris-HCl pH 7.5, 10 mM MgCl2, 150 mM NaCl, 1 mM DTT; blots with anti-His and anti-MBP. Particulars: both partners purified.

B1: His-MASS2.3 (MASS2 splicing variant 3, recombinant) (natural protein, Arabidopsis thaliana, UniProt Q9XI29 1-148, looked up)
chain: MEGLQRSTISFRRQGSSGIVFDDRLIAELNKSGNNEQKDESQRDEQPKPMSESSEQVKPIDEKDKLRPIKTGGGAPGGIERSRSNGGGAQRHHRTTGRVSPAVDPPSPRISSCGCCSAFGKNPPGKKVNPRKRPPKRRSRRRIVTKKR
notes: source: E. coli BL21 (DE3), purified (Ni-NTA agarose)
On to B1, for which the binding result is “binds”.
